Source: US20240239891A1 (Stanford University, published 2024)

T1: extracellular domain (ECD) of human GRAIL (RNF128) (human, UniProt Q8TEB7 39-207, limits assumed)
T1 construct: extracellular domain; also called GRAIL ECD
T1 sequence (looked up): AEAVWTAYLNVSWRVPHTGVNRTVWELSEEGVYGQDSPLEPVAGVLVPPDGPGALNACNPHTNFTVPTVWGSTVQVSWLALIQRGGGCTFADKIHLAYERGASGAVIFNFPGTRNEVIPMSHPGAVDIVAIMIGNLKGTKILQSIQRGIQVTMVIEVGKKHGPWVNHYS

T2: mRNF43 ECD
T2 construct: The mouse half of m18, which leaves the species open; also called extracellular domain of mouse RNF43
T2 chain: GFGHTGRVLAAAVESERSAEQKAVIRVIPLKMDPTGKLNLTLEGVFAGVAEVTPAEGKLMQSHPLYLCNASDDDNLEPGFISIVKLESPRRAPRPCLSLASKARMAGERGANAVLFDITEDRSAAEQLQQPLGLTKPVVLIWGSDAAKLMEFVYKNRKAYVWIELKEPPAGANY

B1: GODZILLA (RNF167) VHH of SEQ ID NO: 9 (VHH)
VHH: QVQLQESGGGLVQAGGSLRLSCAASGSIFRLWYMGWYRQAPGKEREFVASIGIGATTNYADSVKGRFTISRDNAKNTVYLQMNSLKPEDTAVYYCAVFGWAYSGYHDDFLYWGQGTQVTVSS
notes: also called A5; GODZILLA-A5
B2: RNF43 VHH of SEQ ID NO: 10 (VHH)
VHH: QVQLQESGGGLVQAGGSLRLSCAASGTIFDDLLMGWYRQAPGKERELVAAIGAGATTNYADSVKGRFTISRDNAKNTVYLQMNSLKPEDTAVYYCAAWWLYYKGDWALYLYWGQGTQVTVSS
notes: also called RNF43 nanobody

Columns and labels:
[1] = biological target: T3, extracellular domain (ECD) of human GODZILLA (RNF167) (human, UniProt Q9H6Y7 25-173, limits assumed); experiment: SPR (Biacore), titration at equilibrium, nanobody on ECD
T3 construct: extracellular domain; also called GODZILLA ECD

[2] = biological target: T1, extracellular domain (ECD) of human …; experiment: SPR (Biacore), ligand hRNF128 ECD (GRAIL), analyte GODZILLA-A5 [CONT. 3]
[3] = biological target: GODZILLA (RNF167) on Ba/F3 cells (mouse, UniProt Q91XF4); experiment: flow cytometry, surface staining of Ba/F3 cells (mouse by legend paragraph 54, sheet prints HUMAN) with streptavidin-APC tetramerized nanobody, titration up to 200 nM; control BIOTIN
[4] = biological target: T4, extracellular domain (ECD) of human or mouse RNF43 (human or mouse); experiment: SPR (Biacore), nanobody on ECD
T4 construct: extracellular domain; also called RNF43 ECD

mRNF43 ECD = biological target: T2, mRNF43 ECD; experiment: SPR (Biacore), ligand mRNF43 ECD, analyte RNF43 -A4

Binder | Kd [1] [nM] | binding result [2] | binding result [3] | Kd [4] [nM] | binding result (mRNF43 ECD)
B1 | 3 | no binding (tested: 1000 (unit not printed)) | binds | – | –
B2 | – | – | – | 315 | no binding (tested: highest concentration not legible)
